Article PMC7144947
Where two headings read alike, the source gives them in different places.

Assays:
Sox11 = Sox11 (UniProt Q7M6Y2 1-395); experiment: EMSA
Sox2 [1] = molecular target: T1, Sox2 (Mus musculus, UniProt P48432 1-319); experiment: EMSA
Sox2 [2] = molecular target: T1, Sox2; experiment: EMSA; remark: listed apart in the source
Sox2-ΔRBM [3] = molecular target: T2, Sox2-ΔRBM (Mus musculus, UniProt P48432 1-319, del121-180); experiment: EMSA
Sox2-ΔHMG [4] = molecular target: T3, Sox2-ΔHMG (Mus musculus, UniProt P48432 1-319, del41-118); experiment: EMSA
Sox2(1-120) = Sox2(1-120) (Mus musculus, UniProt P48432 1-120); experiment: EMSA
Sox2(180-319) = Sox2(180-319) (Mus musculus, UniProt P48432 180-319); experiment: EMSA
Sox2(1-180) = Sox2(1-180) (Mus musculus, UniProt P48432 1-180); experiment: EMSA
Sox2-ΔRBM [5] = molecular target: T2, Sox2-ΔRBM; experiment: EMSA; remark: listed apart in the source
Sox1 = Sox1 (Mus musculus, UniProt P53783 1-391); experiment: EMSA
Sequence of Sox1 (P53783 whole entry): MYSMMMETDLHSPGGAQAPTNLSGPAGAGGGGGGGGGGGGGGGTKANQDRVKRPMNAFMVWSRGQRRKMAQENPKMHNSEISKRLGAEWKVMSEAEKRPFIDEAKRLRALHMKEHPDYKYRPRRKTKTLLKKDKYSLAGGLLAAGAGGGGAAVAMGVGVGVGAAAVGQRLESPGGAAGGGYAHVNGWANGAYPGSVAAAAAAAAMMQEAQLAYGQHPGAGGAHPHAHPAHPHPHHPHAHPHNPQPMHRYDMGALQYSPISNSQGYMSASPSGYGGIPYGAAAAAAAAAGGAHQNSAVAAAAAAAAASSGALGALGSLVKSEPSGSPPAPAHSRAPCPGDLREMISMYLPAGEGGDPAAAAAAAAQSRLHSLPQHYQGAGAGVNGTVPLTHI

Sox2-HMG = Sox2-HMG (Mus musculus, UniProt P48432 41-120); experiment: competition
Sox2-ΔRBM [6] = molecular target: T2, Sox2-ΔRBM; experiment: competition
Sox2-ΔHMG [7] = molecular target: T3, Sox2-ΔHMG; experiment: competition
Sox2(120-319) = Sox2(120-319) (Mus musculus, UniProt P48432 120-319); experiment: EMSA
Sox2-ΔRBM [8] = molecular target: T2, Sox2-ΔRBM; experiment: in vitro RIP
Sox2-ΔHMG [9] = molecular target: T3, Sox2-ΔHMG; experiment: competition; remark: listed apart in the source

Sequence of Sox11 (Q7M6Y2 whole entry): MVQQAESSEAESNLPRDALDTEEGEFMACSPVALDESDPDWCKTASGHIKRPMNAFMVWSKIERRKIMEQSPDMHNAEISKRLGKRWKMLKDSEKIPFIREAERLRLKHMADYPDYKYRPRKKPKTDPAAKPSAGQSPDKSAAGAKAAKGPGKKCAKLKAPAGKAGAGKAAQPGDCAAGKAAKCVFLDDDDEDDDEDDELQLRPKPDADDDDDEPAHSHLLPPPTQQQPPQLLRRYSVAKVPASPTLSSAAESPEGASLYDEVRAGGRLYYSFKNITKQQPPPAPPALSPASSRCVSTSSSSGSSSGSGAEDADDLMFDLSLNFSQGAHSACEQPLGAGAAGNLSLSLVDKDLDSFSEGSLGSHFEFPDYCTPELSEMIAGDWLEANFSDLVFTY

GCGGCAAGCCCAUACUCGCGUUCAA (ssRNA) [12th-15 RNA]
binding result (Sox11): no binding | binding result (Sox2 [1]): binds

B1: Sox2/Prox1 DNA (dsDNA)
DNA 1: CTAGCATTGTCTGGG
DNA 2: CCCAGACAATGCTAG
binding result (Sox2 [2]): binds | binding result (Sox2-ΔRBM [3]): binds | binding result (Sox11): binds

CGCGGCUUGCCCUAUCGCGGUGUAG (structured_RNA) [12th-24 RNA]
binding result (Sox2-ΔHMG [4]): binds | binding result (Sox2(1-120)): binds | binding result (Sox2(180-319)): no binding | binding result (Sox2(1-180)): binds | binding result (Sox2-ΔRBM [5]): binds | binding result (Sox1): binds | binding result (Sox2 [1]): binds

B2: Prox1 DNA unlabelled (dsDNA)
DNA 1: CTAGCATTGTCTGGG
DNA 2: CCCAGACAATGCTAG
binding result (Sox2-HMG): binds | binding result (Sox2-ΔRBM [6]): binds | binding result (Sox2-ΔHMG [7]): no binding

CAGCUUUUCCCUGUAGUCAUGAAUG (ssRNA) [Dnmt3b RNA]
binding result (Sox2-ΔHMG [4]): binds | binding result (Sox2(180-319)): no binding | binding result (Sox11): no binding | binding result (Sox2(120-319)): binds

CGCGGCUUGCCCUAUUAUAGUGUAG (ssRNA) [12th-24 Mut3]
binding result (Sox2-ΔRBM [8]): binds

CCUGCAGCUCAUGACCCCUGCUUCC (ssRNA) [Dicer1 RNA]
binding result (Sox2-ΔHMG [4]): binds | binding result (Sox2(180-319)): no binding | binding result (Sox11): no binding | binding result (Sox2(120-319)): binds

CGCGGCUUGCCCUAUCGCGGUGUAG (structured_RNA) [12th-24 RNA unlabelled]
binding result (Sox2-HMG): no binding | binding result (Sox2-ΔRBM [6]): binds | binding result (Sox2-ΔHMG [9]): binds
